The results in this text go back to paper PMC4067145.

Data set [1] has as its target T1, U1A (human, UniProt P09012 1-282). The experiment in a line: ITC. (In ITC the heat of successive injections is recorded.)
Data set [2] addresses T2, U1A;U2A′ LRR domain (human;human, UniProt P09012;P09661 1-282;1-180, |). Nature of the data set: ITC.
Data set [3] deals with T3, U2B″ (human, UniProt P08579 1-225). Nature of the data set: ITC.
Data set [4] addresses T1, U1A. The experiment in a line: fluorescence titration.
The target of data set [5] is T3, U2B″. The experiment in a line: fluorescence titration.
The target of data set [6] is U2B″;U2A′ LRR domain (human;human, UniProt P08579;P09661 1-225;1-180, |). Nature of the data set: fluorescence titration.
Data set [7] deals with T2, U1A;U2A′ LRR domain. Nature of the data set: fluorescence titration.
The target of data set [8] is T2, U1A;U2A′ LRR domain. Nature of the data set: fluorescence titration. This is another data set of the same source.
In data set [9] the target is T3, U2B″. Nature of the data set: ITC. This is another data set of the same source.
The target of data set [10] is T1, U1A. Nature of the data set: ITC. The source holds these as a separate data set.

T3 sequence (P08579 whole entry): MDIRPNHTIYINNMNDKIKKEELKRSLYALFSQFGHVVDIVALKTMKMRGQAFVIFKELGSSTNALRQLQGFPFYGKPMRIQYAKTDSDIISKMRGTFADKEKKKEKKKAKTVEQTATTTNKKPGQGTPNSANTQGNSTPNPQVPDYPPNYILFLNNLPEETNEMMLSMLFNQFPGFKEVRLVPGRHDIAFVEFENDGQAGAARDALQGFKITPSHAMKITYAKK
T1 sequence (P09012 whole entry, the tested form may be a part): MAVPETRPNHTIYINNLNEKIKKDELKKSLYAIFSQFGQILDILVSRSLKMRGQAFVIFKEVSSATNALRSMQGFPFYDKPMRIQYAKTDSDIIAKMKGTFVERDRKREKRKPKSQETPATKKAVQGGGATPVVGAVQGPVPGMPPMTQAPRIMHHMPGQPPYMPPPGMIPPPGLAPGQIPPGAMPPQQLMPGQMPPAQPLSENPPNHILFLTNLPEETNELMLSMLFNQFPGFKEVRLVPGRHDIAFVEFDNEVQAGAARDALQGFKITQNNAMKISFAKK
T2 sequence (P09012 whole entry, chain 1 of 2, the tested form may be a part): as the sequence (P09012 whole entry, the tested form may be a part) above
T2 sequence (P09661 1-180, chain 2 of 2): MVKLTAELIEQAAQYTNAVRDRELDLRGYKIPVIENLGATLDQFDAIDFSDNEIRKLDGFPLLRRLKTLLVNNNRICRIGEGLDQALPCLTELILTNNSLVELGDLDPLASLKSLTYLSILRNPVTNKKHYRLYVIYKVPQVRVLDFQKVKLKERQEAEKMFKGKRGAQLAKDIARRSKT
U2B″;U2A′ LRR domain, sequence (P08579 whole entry, chain 1 of 2, the tested form may be a part): as the sequence (P08579 whole entry) above
U2B″;U2A′ LRR domain, sequence (P09661 1-180, chain 2 of 2): as the sequence (P09661 1-180, chain 2 of 2) above

The Kd is the concentration at which binding is half-saturated. Higher therefore signals lower affinity. As for GGGCACAUUGCACCUCGUGUCCAGACUUCGGUC (structured_RNA) [SLII ITC construct], the dissociation constant Kd in [1] was below 7 nM; in data set [3] it was 92 nM. The binding signal in [2] was 1.4 ± 7.9 alpha (linkage parameter, fold).

Regarding GGGCCCGGCAUUGCACCUCGCCGGGUCC (structured_RNA) [FAM-SLII (U1 snRNA stemloop II)], the Kd worked out at 0.33 nM in [4] and 15 nM in data set [5]. Besides, the binding signal is 15.8 ± 1.6 alpha (linkage parameter, fold) in [6] and 7.3 ± 1.3 alpha (linkage parameter, fold) in data set [7].

In the case of GGGCCCGGUAUUGCAGUACCGCCGGGUCC (structured_RNA) [FAM-SLIV (U2 snRNA stemloop IV)], the Kd in data set [4] was 58 nM; in data set [5], 17 nM. In addition, the binding signal in data set [6] was 139 ± 49 alpha (linkage parameter, fold); in [8], 89 ± 11 alpha (linkage parameter, fold).

GGAGUUUUCCAGGACGUAUUGCAGUACCUCGUCCUGG (structured_RNA) [SLIV ITC construct]: the Kd in [9] stood at 2.3 nM; in data set [10], 100 nM. Moreover, the binding signal in [2] is 34 ± 17 alpha (linkage parameter, fold).
